From the RNAGym collection of RNA variant scans (doi:10.1073/pnas.2313332121)
Variants at the floor of the assay were thinned out.

B1: TPR 5TU (parent)
chain: GGAUCUUCUCGAUCUAACAAAAAAGACAAAUCUGCCACAAAGCUUGAGAGCAUCUUCGGAUGCAGAGGCGGCAGCCUUCGGUGGCGCGAUAGCGCCAACGUUCUCAACUAUGACACGCAAAACGCGUGCUCCGUUGAAUGGAGUUUAUCAUG

Variants of: B1
Experiment: polymerase ribozyme fitness, log enrichment relative to wild type (log ratio); higher = more active; in vitro selection for triplet polymerase activity
How it was run: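 Fitness compares each genotype's enrichment to that of the wild type on a logarithmic scale, averaging replicates with inverse-variance weights. The logarithm is base 2. Enrichment came from Illumina sequencing of input and output libraries after one triplicate round of in vitro selection, which included frozen incubation at −7 °C, of PCR-built, transcribed mutant libraries of each subunit of a heterodimeric triplet polymerase ribozyme. Only genotypes with ≥10 input reads and ≥1 read per output were kept.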

| Variant | polymerase ribozyme fitness (log ratio) |
| --- | --- |
| GGAUCUUCUCGAUCUAACAAAAAAGACAAAUCUGCCACAAAGCUUGAGAGCAUCUUCGGAUGCAGAGGCGGCAGCCUUCGGUGGCGCGAUAGCGCCAACGUUCUCAACUAUGACACGCAAAACGCGUACUCCACUGAAUGGAGUUUAUCGUG | -3.52 |
| GGAUCUUCUCGAUCUAACAAAAAAGACAAAUCUGCCACAAAGCUUGAGAGCAUCUUCGGAUGCAGAGGCGGCAGCCUUCGGUGGCGCGAUAGCGCCAACGUUCUCAACUAUGACACGCAAAACGCAUGCUCGGUUGAAUGGAGUUUAUCAUG | -2.68 |
| GGAUCUUCUCGAUCUAACAAAAAAGACAAAUCUGCCACAAAGCUUGAGAGCAUCUUCGGAUGCAGAGGCGGCAGCCUUCGGUGGCGCGAUAGCGCCAACGUUCUCAACUAUGACACGCAAAACGCCUGCUCCGUUGAAUGGAGUUUAUCGUG | -2.81 |
| GGAUCUUCUCGAUCUAACAAAAAAGACAAAUCUGCCACAAAGCUUGAGAGCAUCUUCGGAUGCAGAGGCGGCAGCCUUCGGUGGCGCGAUAGCGCCAACGUUCUCAACUAUGACACGCAAAACGCGUUCUCCGUUGUAUGGAGUUUAUCAUG | -3.34 |
| GGAUCUUCUCGAUCUAACAAAAAAGACAAAUCUGCCACAAAGCUUGAGAGCAUCUUCGGAUGCAGAGGCGGCAGCCUUCGGUGGCGCGAUAGCGCCAACGUUCUCAACUAUGACACGCAAAACGUAUGCUCCGUUGAAUGGAGUUUAUCAUG | -3.14 |
| GGAUCUUCUCGAUCUAACAAAAAAGACAAAUCUGCCACAAAGCUUGAGAGCAUCUUCGGAUGCAGAGGCGGCAGCCUUCGGUGGCGCGAUAGCGCCAACGUUCUCAACUAUGACACGCAAAACGCGUACUCCGUUGAAUGAAUGUUAUCAAG | ≤ -4.2 |
| GGAUCUUCUCGAUCUAACAAAAAAGACAAAUCUGCCACAAAGCUUGAGAGCAUCUUCGGAUGCAGAGGCGGCAGCCUUCGGUGGCGCGAUAGCGCCAACGUUCUCAACUAUGACACGCAAAACGCGGGCUCCGUUGUAUGGAGUUUAUCAUG | -4.19 |
| GGAUCUUCUCGAUCUAACAAAAAAGACAAAUCUGCCACAAAGCUUGAGAGCAUCUUCGGAUGCAGAGGCGGCAGCCUUCGGUGGCGCGAUAGCGCCAACGUUCUCAACUAUGACACGCAAAACGCGGGCUCCGAUGAAUGGAGUUUAUCAUG | -4.18 |
| GGAUCUUCUCGAUCUAACAAAAAAGACAAAUCUGCCACAAAGCUUGAGAGCAUCUUCGGAUGCAGAGGCGGCAGCCUUCGGUGGCGCGAUAGCGCCAACGUUCUCAACUAUGACACGCAAAACGCGUUCUCCGUUGAAUGGAGCUUAUCAUG | -3.96 |
| GGAUCUUCUCGAUCUAACAAAAAAGACAAAUCUGCCACAAAGCUUGAGAGCAUCUUCGGAUGCAGAGGCGGCAGCCUUCGGUGGCGCGAUAGCGCCAACGUUCUCAACUAUGACACGCAAAACGCGAGCUCCGCUGAAUGCAGUUUAUCAUG | -3.82 |
| GGAUCUUCUCGAUCUAACAAAAAAGACAAAUCUGCCACAAAGCUUGAGAGCAUCUUCGGAUGCAGAGGCGGCAGCCUUCGGUGGCGCGAUAGCGCCAACGUUCUCAACUAUGACACGCAAAACGCAUGCUCCGUUGAAUGGAGUUUAUCGUG | -2.66 |
| GGAUCUUCUCGAUCUAACAAAAAAGACAAAUCUGCCACAAAGCUUGAGAGCAUCUUCGGAUGCAGAGGCGGCAGCCUUCGGUGGCGCGAUAGCGCCAACGUUCUCAACUAUGACACGCAAAACGUGUGCUCCGGUGAAUGGCGUUUAUCAUG | -3.76 |
| GGAUCUUCUCGAUCUAACAAAAAAGACAAAUCUGCCACAAAGCUUGAGAGCAUCUUCGGAUGCAGAGGCGGCAGCCUUCGGUGGCGCGAUAGCGCCAACGUUCUCAACUAUGACACGCAAAACGCGGGCUCCGUUGAAUGGAGGUUAUCAUG | -1.7 |
| GGAUCUUCUCGAUCUAACAAAAAAGACAAAUCUGCCACAAAGCUUGAGAGCAUCUUCGGAUGCAGAGGCGGCAGCCUUCGGUGGCGCGAUAGCGCCAACGUUCUCAACUAUGACACGCAAAACGCGGGCUCCGUUGAAUGAAGUUUAUCAUG | -3.27 |
| GGAUCUUCUCGAUCUAACAAAAAAGACAAAUCUGCCACAAAGCUUGAGAGCAUCUUCGGAUGCAGAGGCGGCAGCCUUCGGUGGCGCGAUAGCGCCAACGUUCUCAACUAUGACACGCAAAACGCGGGCUCCGUUAAAUGGAGUUUAUCAUG | -2.89 |
| GGAUCUUCUCGAUCUAACAAAAAAGACAAAUCUGCCACAAAGCUUGAGAGCAUCUUCGGAUGCAGAGGCGGCAGCCUUCGGUGGCGCGAUAGCGCCAACGUUCUCAACUAUGACACGCAAAACGCGUCCUCCGUUGAAUGGAGUUUAUCUUG | -4 |
| GGAUCUUCUCGAUCUAACAAAAAAGACAAAUCUGCCACAAAGCUUGAGAGCAUCUUCGGAUGCAGAGGCGGCAGCCUUCGGUGGCGCGAUAGCGCCAACGUUCUCAACUAUGACACGCAAAACGCUUGCUCCGUUGAAUGGAGUUUAUCAUU | -2.47 |
| GGAUCUUCUCGAUCUAACAAAAAAGACAAAUCUGCCACAAAGCUUGAGAGCAUCUUCGGAUGCAGAGGCGGCAGCCUUCGGUGGCGCGAUAGCGCCAACGUUCUCAACUAUGACACGCAAAACGCGCGCUACGUUGAAUGGAGUUUAUCAUU | -3.91 |
| GGAUCUUCUCGAUCUAACAAAAAAGACAAAUCUGCCACAAAGCUUGAGAGCAUCUUCGGAUGCAGAGGCGGCAGCCUUCGGUGGCGCGAUAGCGCCAACGUUCUCAACUAUGACACGCAAAACGCGUGCCCCGUUGAAUGGAGCUUCUCAUG | -1.95 |

| Variant | polymerase ribozyme fitness (log ratio) |
| --- | --- |
| GGAUCUUCUCGAUCUAACAAAAAAGACAAAUCUGCCACAAAGCUUGAGAGCAUCUUCGGAUGCAGAGGCGGCAGCCUUCGGUGGCGCGAUAGCGCCAACGUUCUCAACUAUGACACGCAAAACGCGUUCUCCGUUGAAUGGCGUUUAUCAUG | -3.6 |
| GGAUCUUCUCGAUCUAACAAAAAAGACAAAUCUGCCACAAAGCUUGAGAGCAUCUUCGGAUGCAGAGGCGGCAGCCUUCGGUGGCGCGAUAGCGCCAACGUUCUCAACUAUGACACGCAAAACGUGUGCUCCGUUGAAUGGAGUUUAUCUUG | -0.413 |
| GGAUCUUCUCGAUCUAACAAAAAAGACAAAUCUGCCACAAAGCUUGAGAGCAUCUUCGGAUGCAGAGGCGGCAGCCUUCGGUGGCGCGAUAGCGCCAACGUUCUCAACUAUGACACGCAAAACGCAUGGUCCGUUGAAUGGAGUUUAUCAUG | -3.97 |
| GGAUCUUCUCGAUCUAACAAAAAAGACAAAUCUGCCACAAAGCUUGAGAGCAUCUUCGGAUGCAGAGGCGGCAGCCUUCGGUGGCGCGAUAGCGCCAACGUUCUCAACUAUGACACGCAAAACGUGUGCUCCGUUGAAUGCAGUUUAUCAUG | -3.85 |
| GGAUCUUCUCGAUCUAACAAAAAAGACAAAUCUGCCACAAAGCUUGAGAGCAUCUUCGGAUGCAGAGGCGGCAGCCUUCGGUGGCGCGAUAGCGCCAACGUUCUCAACUAUGACACGCAAAACGCGUGAUCCGUUGAAUGGAAUUUAUCGUG | -3.66 |
| GGAUCUUCUCGAUCUAACAAAAAAGACAAAUCUGCCACAAAGCUUGAGAGCAUCUUCGGAUGCAGAGGCGGCAGCCUUCGGUGGCGCGAUAGCGCCAACGUUCUCAACUAUGACACGCAAAACGCUUGCUCCGUUGAAUGGAGUUUAUCAUG | 0.31 |
| GGAUCUUCUCGAUCUAACAAAAAAGACAAAUCUGCCACAAAGCUUGAGAGCAUCUUCGGAUGCAGAGGCGGCAGCCUUCGGUGGCGCGAUAGCGCCAACGUUCUCAACUAUGACACGCAAAACGCAUGCUCCGUUGAAUGGAGUUUAUCAUG | 0.682 |
| GGAUCUUCUCGAUCUAACAAAAAAGACAAAUCUGCCACAAAGCUUGAGAGCAUCUUCGGAUGCAGAGGCGGCAGCCUUCGGUGGCGCGAUAGCGCCAACGUUCUCAACUAUGACACGCAAAACGCCUGCUCCGUUGAAUGGAGUUUAUCAUG | 1.28 |
| GGAUCUUCUCGAUCUAACAAAAAAGACAAAUCUGCCACAAAGCUUGAGAGCAUCUUCGGAUGCAGAGGCGGCAGCCUUCGGUGGCGCGAUAGCGCCAACGUUCUCAACUAUGACACGCAAAACGCAUGCUCCGUUGAAUGGAAUUUAUCAUG | -1.92 |
| GGAUCUUCUCGAUCUAACAAAAAAGACAAAUCUGCCACAAAGCUUGAGAGCAUCUUCGGAUGCAGAGGCGGCAGCCUUCGGUGGCGCGAUAGCGCCAACGUUCUCAACUAUGACACGCAAAACGCGUGAUCCGUUGAAUGGAGUUUAGCAUG | -4.11 |
| GGAUCUUCUCGAUCUAACAAAAAAGACAAAUCUGCCACAAAGCUUGAGAGCAUCUUCGGAUGCAGAGGCGGCAGCCUUCGGUGGCGCGAUAGCGCCAACGUUCUCAACUAUGACACGCAAAACGCGUGAUCCGUUGAAUGGAGUUUAUCAUG | -2.46 |
| GGAUCUUCUCGAUCUAACAAAAAAGACAAAUCUGCCACAAAGCUUGAGAGCAUCUUCGGAUGCAGAGGCGGCAGCCUUCGGUGGCGCGAUAGCGCCAACGUUCUCAACUAUGACACGCAAAACGCGUGUUCCGUUGAAUGGAGUUUAUCAUG | -0.0537 |
| GGAUCUUCUCGAUCUAACAAAAAAGACAAAUCUGCCACAAAGCUUGAGAGCAUCUUCGGAUGCAGAGGCGGCAGCCUUCGGUGGCGCGAUAGCGCCAACGUUCUCAACUAUGACACGCAAAACGCGUGGUCCGUUGAAUGGAGUUUAUCAUG | -2.45 |
| GGAUCUUCUCGAUCUAACAAAAAAGACAAAUCUGCCACAAAGCUUGAGAGCAUCUUCGGAUGCAGAGGCGGCAGCCUUCGGUGGCGCGAUAGCGCCAACGUUCUCAACUAUGACACGCAAAACGCUUGCUCUGUUGAAUGGAGUUUAUCAUG | -0.717 |
| GGAUCUUCUCGAUCUAACAAAAAAGACAAAUCUGCCACAAAGCUUGAGAGCAUCUUCGGAUGCAGAGGCGGCAGCCUUCGGUGGCGCGAUAGCGCCAACGUUCUCAACUAUGACACGCAAAACGCGUGGUCCGGUGAAUGGAGUUUAUCAUG | -3.81 |
| GGAUCUUCUCGAUCUAACAAAAAAGACAAAUCUGCCACAAAGCUUGAGAGCAUCUUCGGAUGCAGAGGCGGCAGCCUUCGGUGGCGCGAUAGCGCCAACGUUCUCAACUAUGACACGCAAAACGCGUGCUACGUUGAAUGGAGUUUAUCAUG | -1.77 |
| GGAUCUUCUCGAUCUAACAAAAAAGACAAAUCUGCCACAAAGCUUGAGAGCAUCUUCGGAUGCAGAGGCGGCAGCCUUCGGUGGCGCGAUAGCGCCAACGUUCUCAACUAUGACACGCAAAACGCGUGCUGCGUUGAAUGGAGUUUAUCAUG | -2.79 |
| GGAUCUUCUCGAUCUAACAAAAAAGACAAAUCUGCCACAAAGCUUGAGAGCAUCUUCGGAUGCAGAGGCGGCAGCCUUCGGUGGCGCGAUAGCGCCAACGUUCUCAACUAUGACACGCAAAACGCGGGCUCCGUUGAGUGGCGUUUAUCAUG | -3.48 |
| GGAUCUUCUCGAUCUAACAAAAAAGACAAAUCUGCCACAAAGCUUGAGAGCAUCUUCGGAUGCAGAGGCGGCAGCCUUCGGUGGCGCGAUAGCGCCAACGUUCUCAACUAUGACACGCAAAACGCAUGCUCUGUUGAAUGGCGUUUAUCAUG | ≤ -4.2 |
